“Also recorded” adds a separate entry of the source.
T1: Human NRP2 (aa23-855) (Homo sapiens, UniProt O60462)
T1 construct: Human NRP2 (aa23-855)
T1 sequence (O60462 23-855 isoform O60462-3): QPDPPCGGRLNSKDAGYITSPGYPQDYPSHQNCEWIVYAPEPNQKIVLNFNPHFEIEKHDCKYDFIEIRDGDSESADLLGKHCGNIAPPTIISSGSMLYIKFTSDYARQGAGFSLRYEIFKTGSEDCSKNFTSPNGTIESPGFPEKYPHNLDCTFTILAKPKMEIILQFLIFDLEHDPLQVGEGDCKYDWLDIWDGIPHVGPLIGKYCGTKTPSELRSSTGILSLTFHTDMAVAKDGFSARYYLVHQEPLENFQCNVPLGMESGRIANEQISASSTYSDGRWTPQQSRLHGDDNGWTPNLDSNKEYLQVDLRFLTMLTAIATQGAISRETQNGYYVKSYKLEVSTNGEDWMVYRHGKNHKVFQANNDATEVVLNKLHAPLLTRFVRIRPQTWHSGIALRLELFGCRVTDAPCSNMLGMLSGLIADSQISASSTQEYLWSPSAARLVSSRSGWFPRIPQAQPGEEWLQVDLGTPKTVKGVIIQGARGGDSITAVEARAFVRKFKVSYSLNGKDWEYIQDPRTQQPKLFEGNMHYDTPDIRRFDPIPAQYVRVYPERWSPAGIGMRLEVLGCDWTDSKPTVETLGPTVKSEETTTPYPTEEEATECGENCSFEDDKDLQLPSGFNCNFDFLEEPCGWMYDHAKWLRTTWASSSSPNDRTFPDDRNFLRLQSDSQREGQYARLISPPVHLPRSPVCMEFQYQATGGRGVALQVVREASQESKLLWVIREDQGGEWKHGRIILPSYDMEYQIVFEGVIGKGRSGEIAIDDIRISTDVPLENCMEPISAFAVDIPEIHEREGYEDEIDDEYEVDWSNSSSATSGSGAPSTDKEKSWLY


How the values were obtained:
Human NRP2 (aa23-855) = target: T1, Human NRP2 (aa23-855); assay: SPR binding affinity of anti-NRP2 antibodies to human NRP2 antigen; settings: KD = kd/ka, Langmuir (1:1) model
Method: Anti-NRP2 antibody binding and affinity measurements. […] SPR experiments were conducted on a Bio-Rad ProteOn XPR36 Protein Interaction Array instrument. Biotinylated anti-human antibody (ThermoFisher Cat #7103302100) was immobilized on ProteOn NLC sensor chips. Anti-NRP2 antibodies were subsequently flowed over and captured by the anti-human antibody. Human NRP2 antigen protein was flowed over the captured antibody at varying concentrations (150, 50, 16.67, 5.56, 1.85 nM). The sensor chip surface was regenerated between each analyte run to remove anti-NRP2 antibodies and NRP2 protein. Data was double referenced against a surface with no anti-NRP2 antibody captured (immobilized anti-human antibody only) and a buffer only blank. Affinity constants were derived by globally fitting sensograms to a Langmuir (1:1) interaction model in the ProteOn manager software. For each anti-NRP2 antibody, data from the multiple NRP2 concentrations was fit as a single data set with dissociation rate constant (kd), association rate constant (ka) and Rmax values as global parameters. The reported binding affinity is the equilibrium dissociation constant (KD) calculated from kd/ka. • Running buffer: 50 mM HEPES, 300 mM NaCl, 5 mM CaCl2), 0.005% Tween-20, pH 7.4 • Immobilized antibody: CaptureSelect Human Fab-kappa Kinetics Biotin Conjugate, ThermoFisher Cat #7103302100 • Antigen: Human NRP2 (aa23-855) with C-terminal Avi-, Myc- and His-tags • Regeneration buffer: 10 mM glycine pH 2.0

[1] = system: phospho-Akt levels in U251 glioblastoma cells; assay: Semaphorin 3F mediated inhibition of AKT phosphorylation in U251 cells; format: cell-based
Method: As shown schematically in FIG. 17, the treatment of cells with Sema3F should specifically block PI3K activity via NRP2 mediated interaction with plexin A1, thereby resulting in reduced phospho-Akt levels. To directly test the ability of the anti-NRP2 antibodies to block this effect, lysates were prepared following standard protocols (MesoScale Discovery, Phospho (Ser473)/Total Akt Assay Whole Cell Lysate Kit #K15100D). Serum starved and confluent U251 cells (Sigma, Cat. 09063001) were treated with 10 nM rapamycin (Sigma, Cat. 553211, 30 minutes), and blocking antibodies or controls were added (10 μg/mL, 30 minutes), followed by 25 nM Sema3F or serum free media for 1 hour in triplicate. Lysate protein concentrations were determined by BCA assay and samples were equalized to 0.4 mg/mL. Phospho and Total AKT were measured following the manufacturer's instructions and percent phosphorylation was calculated by dividing phosphorylated AKT relative units by total AKT relative units. Blocking of Sema3F for each antibody or control was determined by comparing percent phosphorylation of Sema3F treated cells to percent phosphorylation of non-Sema3F treated cells.

Molecule	Kd (Human NRP2 (aa23-855))	blocking of the Sema3F induced decrease in intracellular phospho-Akt levels ([1]; antibody 10 μg/mL, 25 nM Sema3F 1 hour)	decrease in intracellular phospho-Akt levels ([1]; 25 nM Sema3F, 1 hour)
aNRP2-14v10: humanized, affinity matured anti-NRP2 antibody, target domain a2, semaphorin blocking; VH SEQ ID NO: 55, VL SEQ ID NO: 56 (antibody, V domains shown, Variable heavy chain region; Light chain variable region) VH: QLQLVESGGGVVQPGRSLRLSCTVSGFSLTSYGVHWVRQAPGKGLEWVGLIWSGGSTDYSPAFISRFTISEDNSKSTVYLQMNSLRAEDTAVYFCARNSYSSGYYAMDYWGQGTTVTVSS VL: DIQLTQSPSFLSASVGDRVTITCKASQNVGTAVAWYQQKPGKAPKLLIYSASNRYTGVPSRFSGSGSGTEFTLTISSLQPEDFATYYCQQRSRYPPYTFGGGTKVEIK	0.17 nM	blocked the reduction in phospho-Akt levels; also recorded: block semaphorin 3F mediated inhibition of AKT phosphorylation; also recorded: can be blocked	
aNRP2-1v3: humanized, affinity matured anti-NRP2 antibody, target domain b2; VH SEQ ID NO: 43, VL SEQ ID NO: 44 (antibody, V domains shown, Variable heavy chain region; Light chain variable region) VH: QVQLVQSGAEVKKPGASVKVSCKASGYTFTSYWMHWVRQAPGQGLEWMGAIYPGNSDTSYNQQFKGRVTMTRDTSTSTVYMELSSLRSEDTAVYYCARRGGGYFDYWGQGTLVTVSS VL: DIQLTQSPSFLSASVGDRVTITCKASQNVGAAVAWYQQKPGKAPKLLIYSASNRYTGVPSRFSGSGSGTEFTLTISSLQPEDFATYYCQQYSSYPLLTFGGGTKVEIK	17 nM		
aNRP2-2v4: humanized, affinity matured anti-NRP2 antibody, target domain c; VH SEQ ID NO: 45, VL SEQ ID NO: 46 (antibody, V domains shown, Variable heavy chain region; Light chain variable region) VH: QVQLVQSGAEVKKPGASVKVSCKASGYTFTSYWMHWVRQAPGQGLEWMGVIHPNSASTFYNERFKTRATMTVDRSSSTAYMELSSLRSEDTAVYYCSRPGTVRRSDYWGQGTTVTVSS VL: DVVMTQSPLSLPVTLGQPASISCRSSQNIVHSTGNTYLEWYQQRPGQSPRLLIYKVSNRFSGVPDRFSGSGSGTDFTLKISRVEAEDVGVYYCFQGSHVPWTFGGGTKVEIK	2.7 nM		
Sema3F: Semaphorin 3F, NRP2 ligand used to reduce phospho-Akt levels (protein) SFPTQDHLPATPRVRLSFKELKATGTAHFFNFLLNTTDYRILLKDEDHDRMYVGSKDYVLSLDLHDINREPLIIHWAASPQRIEECVLSGKDVNGECGNFVRLIQPWNRTHLYVCGTGAYNPMCTYVNRGRRAQATPWTQTQAVRGRGSRATDGALRPMPTAPRQDYIFYLEPERLESGKGKCPYDPKLDTASALINEELYAGVYIDFMGTDAAIFRTLGKQTAMRTDQYNSRWLNDPSFIHAELIPDSAERNDDKLYFFFRERSAEAPQSPAVYARIGRICLNDDGGHCCLVNKWSTFLKARLVCSVPGEDGIETHFDELQDVFVQQTQDVRNPVIYAVFTSSGSVFRGSAVCVYSMADIRMVFNGPFAHKEGPNYQWMPFSGKMPYPRPGTCPGGTFTPSMKSTKDYPDEVINFMRSHPLMYQAVYPLQRRPLVVRTGAPYRLTTIAVDQVDAADGRYEVLFLGTDRGTVQKVIVLPKDDQELEELMLEEVEVFKDPAPVKTMTISSKRQQLYVASAVGVTHLSLHRCQAYGAACADCCLARDPYCAWDGQACSRYTASSKRASRAQDVRHGNPIRQCRGFNSNANKNAVESVQYGVAGSAAFLECQPRSPQATVKWLFQRDPGDRRREIRAEDRFLRTEQGLLLRALQLSDRGLYSCTATENNFKHVVTRVQLHVLGRDAVHAALFPPLSMSAPPPPGAGPPTPPYQELAQLLAQPEVGLIHQYCQGYWRHVPPSPREAPGAPRSPEPQDQKKPRNRR			approximately 50%
aNRP2-10v13: humanized, affinity matured anti-NRP2 antibody, target domain b1; VH SEQ ID NO: 69, VL SEQ ID NO: 70 (antibody, V domains shown, Variable heavy chain region; Light chain variable region) VH: EVQLVQSGAEVKKPGATVKISCKVSGFNIKDYYVHWVQQAPGKGLEWMGRIDVHDDETKYAPKFQGRVTITADTSTDTAYMELSSLRSEDTAVYYCATPIYGAREAWFAYWGQGTLVTVSS VL: DIQMTQSPSSLSASVGDRVTITCTASSSVSSSYLHWYQQKPGKAPKLLIYRTSNLASGVPSRFSGSGSGTDFTLTISSLQPEDFATYYCHQYYRSPPTFGGGTKVEIK	0.358 nM		
aNRP2-10v5: humanized, affinity matured anti-NRP2 antibody, target domain b1; VH SEQ ID NO: 47, VL SEQ ID NO: 48 (antibody, V domains shown, Variable heavy chain region; Light chain variable region) VH: EVQLVQSGAEVKKPGATVKISCKVSGFNIKDYYIHWVQQAPGKGLEWMGRIDVEDDETKYAPKFQGRVTITADTSTDTAYMELSSLRSEDTAVYYCATPIYGSREAWFAYWGQGTLVTVSS VL: DIQMTQSPSSLSASVGDRVTITCTASSSVSSSYLHWYQQKPGKAPKLLIYRTSNLASGVPSRFSGSGSGTDFTLTISSLQPEDFATYYCHQYYRSPPTFGGGTKVEIK	0.2 nM		

From US12410253B2, “Compositions comprising anti-NRP2 antibodies” (aTyr Pharma, Inc., priority 2019, dated 2025)
